In US10253323B2, “Chloroplast transit peptides” (priority 2015, dated 2019):
“Also recorded” adds a separate entry of the source.

Key:
tobacco budworm (TBW) = test: Insect bioassay of Cry2Aa Arabidopsis events, tobacco budworm; format: in vivo
Description: (§1) The effectiveness of the TraP11 chimeric chloroplast transit peptides on Cry2Aa protein expression in Arabidopsis thaliana was assessed. Transgenic Arabidopsis plants which contained TraP11 chimeric chloroplast transit peptides fused to the Cry2Aa protein were assayed for insect tolerance to soybean looper (SBL) and tobacco budworm (TBW).
(§2) A small aliquot of T2 seed (approx. 100-200 seeds) for each event were suspended in 40 mls of 0.1% agarose solution and cold stratified at 4° C. for 24 hrs. The stratified seeds were then sown by pipetting 10 ml of seed onto the surface of four flats in a propagation flat. The flats were filled with Sunshine #5 soil Media™ (Sun Gro; Bellevue, Wash.) and lightly covered with fine vermiculite. The trays were saturated in Hoagland's fertilizer prior to sowing and as needed afterward. After sowing, humidity domes were used to cover the trays and they were then placed into a Conviron™ growth chamber set at 24° C. with a 16 hr photo period. Incandescent and fluorescent lights provided a light level of 200 PAR. After 5 days the seeds germinated and the domes were removed. The first herbicide selection of transformants was on day 6 and the second on day 10. Liberty™ herbicide (a.i. glufosinate-ammonium) was applied using a DeVilbiss atomizer hand sprayer at a rate of 200 g ai/ha to remove nulls. Roughly 25% of the plants were nulls as expected. A row of wild type checks were also included in the selection and they had 100% mortality after two herbicide applications. At 14 days the plants were ready for transplanting. […] The flats were presoaked with Hoagland's fertilizer prior to transplant and afterward as needed. The transplants were propagated in a non-air conditioned green house set at 25° C. with 14 hours of supplemental light. Silique development was inhibited by trimming with scissors and thus created more plant tissue for testing. Plants were ready for DNA sampling at 16-18 days and ready for bio-assay at about 23 days. The putative transgenic plants were screened using molecular confirmation assays and identified events were advanced for protein analysis and bioassay results.
(§3) Both sets of T1 Arabidopsis events were tested in insect bioassay experiments. […] There was a correlation between protein expression and leaf protection against both SBL and TBW for Arabidopsis events expressing Cry2Aa without a TraP (r^2=0.49 [SBL], 0.23 [TBW]), and for Arabidopsis events expressing Cry2Aa with TraP11 (r^2=0.75 [SBL], 0.17 [TBW]). Resultantly, an increase in protein expression caused significant protection against leaf damage (Pr<0.05).

soybean looper (SBL) = test: Insect bioassay of Cry2Aa Arabidopsis events, soybean looper; format: in vivo
Description: as §1, §2, §3

[1] = system: infiltrated tobacco cells; test: Western blot of infiltrated tobacco plants; format: cell-based, Nicotiana tabacum; settings: infiltrated tobacco leaf tissue
Description: Samples of the infiltrated tobacco plants were assayed via Western blotting. Leaf punches were collected and subjected to bead-milling. About 100-200 mg of leaf material was mixed with 2 BBs (Daisy; Rogers, Ark.) and […] of PBST for 3 minutes in a Kleco™ bead mill. The samples were then spun down in a centrifuge at 14,000× g at 4° C. The supernatant was removed and either analyzed directly via Western blot or immunoprecipitated. The immunoprecipitations were performed using the Pierce Direct IP Kit™ (Thermo Scientific; Rockford, Ill.) following the manufacturer's protocol. Approximately, 50 μg of anti-YFP or anti-GFP was bound to the resin. The samples were incubated with the resin overnight at 4° C. Next, the samples were washed and eluted the following morning and prepped for analysis by combining equal volumes of 2×8M Urea sample buffer and then boiling the samples for 5 minutes. The boiled samples were run on a 4-12% SDS-Bis Tris gel in MOPS buffer for 40 minutes. The gel was then blotted using the Invitrogen iBlot™ (Life Technologies; Carlsbad, Calif.) following the manufacturer's protocol. The blotted membrane was blocked for 10 minutes using 5% non-fat dry milk in PBS-Tween® solution. The membrane was probed with the primary antibody (monoclonal anti-GFP or anti-YFP in rabbit) used at a 1:1000 dilution in the 5% non-fat dry milk in PBS-Tween® solution for 1 hour. Next, the membrane was rinsed three times for five minutes with PBS-Tween® to remove all unbound primary antibody. The membrane was probed with a secondary monoclonal anti-rabbit in goat antibody (Life Technologies) used at a 1:1000 dilution, for 60 minutes. The membrane was washed as previously described and developed by adding Themo BCIP/NBT™ substrate. The colormetric substrate was allowed to develop for 5-10 minutes and then the blots were rinsed with water before being dried.

[2] = system: chloroplasts of the tobacco leaf tissues; test: Tobacco transient assay, confocal microscopy of TraP-YFP/GFP; format: cell-based, Nicotiana tabacum; settings: TraP-YFP or TraP-GFP fusion, Agrobacterium-infiltrated tobacco leaf tissue
Text: The above described chimeric chloroplast transit peptide sequences were initially tested via a transient in planta assay. Polynucleotide sequences which encode the TraP10 (SEQ ID NO:9), TraP11 (SEQ ID NO:10), TraP17 (SEQ ID NO:11), TraP18 (SEQ ID NO:12), TraP19 (SEQ ID NO:13), TraP26 (SEQ ID NO:14), TraP27 (SEQ ID NO:15), and TraP28 (SEQ ID NO:16), chimeric chloroplast transit peptide sequences were synthesized. A linker sequence (SEQ ID NO:17) was incorporated between the TraP sequence and the yfp coding sequence of TraP10 and TraP11. The resulting constructs contained two plant transcription units (PTU). The first PTU was comprised of the Arabidopsis thaliana Ubiquitin 10 promoter (AtUbi10 promoter; Callis, et al., (1990) J. Biol. Chem., 265: 12486-12493), TraP-yellow fluorescent protein fusion gene (TraP-YFP; US Patent App. 2007/0298412) or the TraP-green fluorescent protein fusion gene (TraP-GFP; Sheen et al., (1995) Plant J., 8(5): 777-84), and Agrobacterium tumefaciens ORF 23 3′ untranslated region (AtuORF23 3′UTR; U.S. Pat. No. 5,428,147). The second PTU was comprised of the Cassava Vein Mosaic Virus promoter (CsVMV promoter; Verdaguer et al., (1996) Plant Molecular Biology, 31: 1129-1139), phosphinothricin acetyl transferase (PAT; Wohlleben et al., (1988) Gene, 70: 25-37) or DSM-II (International Patent App. 2008070845), and Agrobacterium tumefaciens ORF 1 3′ untranslated region (AtuORF1 3′UTR; Huang et al., (1990) J. Bacteriol., 172: 1814-1822). Construct pDAB101979 contains the TraP10 chimeric chloroplast transit peptide (FIG. 3). Construct pDAB101980 contains the TraP11 chimeric chloroplast transit peptide (FIG. 4). Construct pDAB107634 contains the TraP17 chimeric chloroplast transit peptide (FIG. 5). Construct pDAB107635 contains the TraP18 chimeric chloroplast transit peptide (FIG. 6). Construct pDAB107636 contains the TraP19 chimeric chloroplast transit peptide (FIG. 7). Construct pDAB109847 contains the TraP26 chimeric chloroplast transit peptide (FIG. 8). Construct pDAB109848 contains the TraP27 chimeric chloroplast transit peptide (FIG. 9). Construct pDAB109849 contains the TraP28 chimeric chloroplast transit peptide (FIG. 10). […] The constructs were confirmed via restriction enzyme digestion and sequencing. Finally, the constructs were transformed into Agrobacterium tumefaciens and stored as glycerol stocks.
From an Agrobacterium glycerol stock, a loop full of frozen culture was inoculated into 2 ml of Yeast-extract Peptone Dextrose (100 μg/ml spectinomycin) in a 14 ml sterile tube. The inoculated media was incubated at 28° C. overnight with shaking at 200 rpm. The following day about 100 μl of the culture was used to inoculate 25 ml of YPD (100 μg/ml spectinomycin) in a 125 ml sterile tri-baffled flask, and incubated overnight at 28° C. overnight with shaking at 200 rpm. The following day the cultures were diluted to an OD600 of 0.5 in sterile ddH2O (pH 8.0). The diluted Agrobacterium strain was mixed with a second Agrobacterium strain containing the P19 helper protein at a ratio of 1:1. The culture were used for tobacco leaf infiltration via the Voinnet method. Voinnet O, Rivas S, Mestre P, and Baulcombe D, (2003) An enhanced transient expression system in plants based on suppression of gene silencing by the p19 protein of tomato bushy stunt virus. The Plant Journal, 33: 949-956. Infiltrated tobacco plants were placed in a Conviron™ set at 16 hr of light at 24° C. for at least three days until being assayed.
Agrobacterium-infiltrated tobacco leaves were severed from the plant, and placed into a petri-dish with water to prevent dehydration. The infiltrated tobacco leaves were observed under blue light excitation with long-pass filter glasses held in place using a Dark Reader Hand Lamp™ (Clare Chemical Research Co.; Dolores, Colo.) to identify undamaged areas of the leaf that were successfully expressing the YFP or GFP reporter proteins. […]

B1: Cry2Aa without a TraP: Cry2Aa protein expressed in Arabidopsis from control plasmid without a chloroplast transit peptide sequence upstream of the cry2Aa gene (protein, UniProt P0A377 1-633, looked up)
Pesticidal crystal protein …: MNNVLNSGRTTICDAYNVVAHDPFSFEHKSLDTIQKEWMEWKRTDHSLYVAPVVGTVSSFLLKKVGSLIGKRILSELWGIIFPSGSTNLMQDILRETEQFLNQRLNTDTLARVNAELIGLQANIREFNQQVDNFLNPTQNPVPLSITSSVNTMQQLFLNRLPQFQIQGYQLLLLPLFAQAANMHLSFIRDVILNADEWGISAATLRTYRDYLRNYTRDYSNYCINTYQTAFRGLNTRLHDMLEFRTYMFLNVFEYVSIWSLFKYQSLMVSSGANLYASGSGPQQTQSFTAQNWPFLYSLFQVNSNYILSGISGTRLSITFPNIGGLPGSTTTHSLNSARVNYSGGVSSGLIGATNLNHNFNCSTVLPPLSTPFVRSWLDSGTDREGVATSTNWQTESFQTTLSLRCGAFSARGNSNYFPDYFIRNISGVPLVIRNEDLTRPLHYNQIRNIESPSGTPGGARAYLVSVHNRKNNIYAANENGTMIHLAPEDYTGFTISPIHATQVNNQTRTFISEKFGNQGDSLRFEQSNTTARYTLRGNGNSYNLYLRVSSIGNSTIRVTINGRVYTVSNVNTTTNNDGVNDNGARFSDINIGNIVASDNTNVTLDINVTLNSGTPFDLMNIMFVPTNLPPLY
Tobacco budworm (TBW)
  protection of Arabidopsis plants from TBW damage: protected from TBW damage
Tobacco budworm (TBW); Arabidopsis events
  Cry2Aa protein concentration resulting in less than 30% leaf damage: ~1.5 ng/cm^2
  Cry2Aa protein level at the 20% leaf damage cut-off point: 2.0-2.5 ng/cm^2
Soybean looper (SBL)
  protection of Arabidopsis plants from SBL damage: protected from SBL damage
Soybean looper (SBL); Arabidopsis events
  minimum Cry2Aa protein expression for lower than 20% leaf damage: 2.0-2.5 ng/cm^2
  minimum Cry2Aa protein expression for lower than 30% leaf damage: about 1.5 ng/cm^2

B2: TraP11: chimeric chloroplast transit peptide, SEQ ID NO:2; N-terminus Glycine max, C-terminus Brassica napus; tested fused to YFP (pDAB101980) (protein)
chain: MAQVSRVHNLAQSTQIFGHSSNSNKLKSVNSVSLKTHQPRASSWGLKKSGTMLNGSVIRPVKVTASVS
modifications: TraP11
[1]
  TraP processed and cleaved from the YFP or GFP protein: processed and cleaved from the YFP or GFP protein
[2]
  translocation of YFP or GFP fluorescent protein into chloroplasts: accumulated within the chloroplasts; also recorded: successfully targeted YFP to tobacco chloroplasts
[2]; listed as TraP11-YFP
  translocation of YFP or GFP fluorescent protein into chloroplasts: translocated into the chloroplasts
Tobacco budworm (TBW)
  protection of Arabidopsis plants from TBW damage: provided insect tolerance
Soybean looper (SBL)
  protection of Arabidopsis plants from SBL damage: provided insect tolerance
